Changes are numbered by the printed parent chain.
B1: humanized ICR62 antibody I-HHD-1/I-KC (antibody, human IgG1, V domains shown)
VH: QVQLVQSGAEVKKPGSSVKVSCKASGGTFTDYKIHWVRQAPGQGLEWMGYFNPNSGYSTYAQKFQGRVTITADKSTSTAYMELSSLRSEDTAVYYCARLSPGGYYVMDAWGQGTTVTVSS
VL: DIQMTQSPSSLSASVGDRVTITCRASQGINNYLNWYQQKPGKAPKRLIYNTNNLQTGVPSRFSGSGSGTEFTLTISSLQPEDFATYYCLQHNSFPTFGQGTKLEIKR
B2: humanized ICR62 antibody I-HHD-2/I-KC (antibody, human IgG1, V domains shown)
VH: B1 VH with G27F, T28S
VL: B1 VL
B3: humanized ICR62 antibody I-HHD-4/I-KC (antibody, human IgG1, V domains shown)
VH: B1 VH with G27F, D31E
VL: B1 VL
B4: humanized ICR62 antibody I-HHD-6/I-KC (antibody, human IgG1, V domains shown)
VH: B1 VH with G27F, P53A
VL: B1 VL
B5: humanized ICR62 antibody I-HHD-7/I-KC (antibody, human IgG1, V domains shown)
VH: B1 VH with G27F, N54I
VL: B1 VL
B6: humanized ICR62 antibody I-HHD-9/I-KC (antibody, human IgG1, V domains shown)
VH: B1 VH with G27F, S58A
VL: B1 VL
B7: humanized ICR62 antibody I-HHD-11/I-KC (antibody, human IgG1, V domains shown)
VH: B1 VH with G27F, A109V
VL: B1 VL
B8: humanized ICR62 antibody I-HHD/I-KC4 (antibody, human IgG1, V domains shown)
VH: B1 VH with G27F
VL: B1 VL with N50T
B9: humanized ICR62 antibody I-HHD/I-KC5 (antibody, human IgG1, V domains shown)
VH: B1 VH with G27F
VL: B1 VL with T51A
B10: humanized ICR62 antibody I-HHD/I-KC6 (antibody, human IgG1, V domains shown)
VH: B1 VH with G27F
VL: B1 VL with N52S
B11: humanized ICR62 antibody I-HHD/I-KC7 (antibody, human IgG1, V domains shown)
VH: B1 VH with G27F
VL: B1 VL with N53S
B12: humanized ICR62 antibody I-HHD/I-KC8 (antibody, human IgG1, V domains shown)
VH: B1 VH with G27F
VL: B1 VL with T56S
B13: humanized ICR62 antibody I-HHD/I-KC9 (antibody, human IgG1, V domains shown)
VH: B1 VH with G27F
VL: B1 VL with F94Y

Key:
[1] = target: T1, human epidermal growth factor receptor (EGFR) (human, UniProt P00533 25-1210); assay: flow cytometry on A431 cells, heavy chain paired with I-KC
T1 construct: whole, on cells; also called HER-1; ErbB1

[2] = target: T1, human epidermal growth factor receptor …; assay: flow cytometry on A431 cells, light chain paired with I-HHD

binding result [1] | binding result [2] | Binder
binds |  | B1
binds |  | B2
binds |  | B3
binds |  | B4
binds |  | B5
binds |  | B6
binds |  | B7
 | binds | B8
 | binds | B9
 | binds | B10
 | binds | B11
 | binds | B12
 | binds | B13
